The source of these data is patent US20150218277A1.

Ends that are not written are not given here.

Experiment [1] deals with T1, Heat Shock Protein 90 (HSP90), endogenous, in human cell lines (human), P07900. Nature of the experiment: cell-based or functional assay.
In experiment [2] the target is HSP90 endogenous to CHO cells (Hamster), P46633. In words: cell-based or functional assay.
Experiment [3] concerns the target T1, Heat Shock Protein 90 (HSP90), …. In words: streptavidin affinity purification of biotinylated peptide from lysates of cancer cells (UMSCC1, H1975), immunoblot for HSP90.

HSP90 endogenous to CHO cells (Hamster), P46633, sequence (P46633 whole entry): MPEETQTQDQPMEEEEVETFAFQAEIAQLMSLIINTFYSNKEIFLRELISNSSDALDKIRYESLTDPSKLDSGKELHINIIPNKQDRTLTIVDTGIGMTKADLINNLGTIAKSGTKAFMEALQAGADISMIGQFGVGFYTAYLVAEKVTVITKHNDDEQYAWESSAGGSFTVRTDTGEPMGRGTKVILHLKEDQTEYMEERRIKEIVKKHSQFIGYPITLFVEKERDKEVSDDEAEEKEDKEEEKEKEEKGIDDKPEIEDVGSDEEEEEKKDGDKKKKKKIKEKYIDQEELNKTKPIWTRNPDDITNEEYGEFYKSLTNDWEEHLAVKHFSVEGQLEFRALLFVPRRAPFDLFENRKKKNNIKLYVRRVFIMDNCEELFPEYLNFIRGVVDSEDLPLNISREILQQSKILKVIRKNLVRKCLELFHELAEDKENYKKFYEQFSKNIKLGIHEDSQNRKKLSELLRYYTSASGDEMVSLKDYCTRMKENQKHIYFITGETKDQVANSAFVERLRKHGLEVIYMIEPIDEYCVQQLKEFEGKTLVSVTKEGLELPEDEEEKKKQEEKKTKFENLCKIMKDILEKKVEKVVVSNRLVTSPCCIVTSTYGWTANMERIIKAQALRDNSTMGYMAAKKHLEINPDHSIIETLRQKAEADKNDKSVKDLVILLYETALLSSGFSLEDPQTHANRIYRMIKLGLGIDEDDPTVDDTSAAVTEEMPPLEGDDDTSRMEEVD

Take YGRKKRRQRRRSVDNPHVC (not fully specified (N-terminus)) [Specific Peptide Biotin-[…]-SVDNPHVC]: in experiment [1], the clonogenic survival, A549 cells (WT-EGFR) (surviving fraction) worked out at 0.57; the clonogenic survival, H1975 cells (T790M-EGFR) (surviving fraction) is 0.4; the clonogenic survival, H3255 cells (L858R-EGFR) (surviving fraction) is 0.71; the clonogenic survival, HeLa cells (WT-EGFR) (surviving fraction) was 0.72. In experiment [1], this molecule yielded a clonogenic survival, Het1A normal epithelial cells (WT-EGFR) (surviving fraction) of 1.02; a clonogenic survival, MRC5 normal fibroblasts (WT-EGFR) (surviving fraction) of 1.01; a clonogenic survival, UMSCC1 cells (WT-EGFR) (surviving fraction) of 0.76; a clonogenic survival, UMSCC10B cells (WT-EGFR) (surviving fraction) of 0.63. Moreover, the clonogenic survival, UMSCC74B cells (WT-EGFR) (surviving fraction) in experiment [1] was found to be 0.74. The molecule also yielded a clonogenic survival, CHO cells (EGFR negative) (surviving fraction) in experiment [2] of 0.98. This molecule also gave a fold increase in HSP90 protein binding in experiment [3] of 5 to 10 fold.

As to YGRKKRRQRRRNHVPSDVC (not fully specified (N-terminus)) [Non Specific Peptide Biotin-[…]-NHVPSDVC], in experiment [1], the clonogenic survival, A549 cells (WT-EGFR) (surviving fraction) was 0.81; the clonogenic survival, H1975 cells (T790M-EGFR) (surviving fraction) came out at 0.77; the clonogenic survival, H3255 cells (L858R-EGFR) (surviving fraction) was found to be 1; the clonogenic survival, HeLa cells (WT-EGFR) (surviving fraction) amounted to 0.92. In experiment [1], this molecule returned a clonogenic survival, Het1A normal epithelial cells (WT-EGFR) (surviving fraction) of 0.91; a clonogenic survival, MRC5 normal fibroblasts (WT-EGFR) (surviving fraction) of 1.04; a clonogenic survival, UMSCC1 cells (WT-EGFR) (surviving fraction) of 1.02; a clonogenic survival, UMSCC10B cells (WT-EGFR) (surviving fraction) of 0.96. In experiment [1], this molecule returned a clonogenic survival, UMSCC74B cells (WT-EGFR) (surviving fraction) of 0.89. The same molecule gave a clonogenic survival, CHO cells (EGFR negative) (surviving fraction) in experiment [2] of 1.12.
